Legend:
Type in all cases: biochemical, Quillaja saponaria
[1] = Experiment 5-2: screening of additional glucosidases for deglycosylation with QS-18 in crude bark extract (80%) at pH 6 and 35 deg C; settings: CBE 80%, pH 6, 35 deg C, 18 hours; UV HPLC
Method in brief: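 Deglycosylation of QS-18 was monitored by UV HPLC after MeCN/AcOH quench with hexanophenone. The reaction ran 18 hours at 35 deg C, shaking, combining clarified pH 6 lysate with crude bark extract neutralised to pH 6 by NaOH.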

[2] = Experiment 4-1: screening of glucosidases for deglycosylation with purified QS-18 (0.04 mg/ml) at pH 7.5 and room temperature; settings: pH 7.5, room temperature, 20 h, clarified E. coli lysate, QS-18 2150 to QS-21 1988 by LCMS/MS
Method in brief: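 Deglycosylation measured by LC-MS/MS as % conversion after 20 h room-temperature incubation of QS-18 phenyl fraction (0.04 mg/ml final) with polymyxin B/lysozyme lysates, pH 7.5 phosphate, of E. coli BL21(DE3) expressing each enzyme; MeCN quench. Positives exceeded negative control by >3 S.D.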

[3] = Experiment 4-3: screening of glucosidases for deglycosylation with QS-18 in crude bark extract (1 in 2000 dilution) at pH 7 and 30 deg C; settings: CBE 1 in 2000 dilution, pH 7, 30 degC, 1 h; % conversion of QS-18 by LCMS/MS
[4] = Experiment 5-3: screening of additional glucosidases for deglycosylation with QS-18 in treated bark extract (80%) at pH 6 and 35 deg C; settings: TBE 80% (QS-21 approx. 4 g/L), pH 6, 35 deg C; UV HPLC
Experimental: Experiment 5-1 was repeated, replacing CBE with Treated Bark Extract (TBE) at pH 6. TBE was prepared from CBE by PVPP treatment and concentration, to provide TBE with a QS-21 concentration of approximately 4 g/L. TBE was adjusted to pH 6 by dropwise addition of 2M NaOH with stirring.

[5] = Experiment 4-4: screening of glucosidases for deglycosylation of QS-18 in crude bark extract (1 in 20 dilution) to QS-21; settings: CBE 1 in 20 dilution, pH 6, 25 degC, 18 hours; % conversion of Middle Peak by UV HPLC
Method in brief: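 Clarified glucosidase lysates were incubated with pH 6 crude bark extract (1 in 20) in potassium phosphate buffer pH 6 for 18 h at 25 °C with shaking, then quenched with MeCN. UV HPLC with MS/MS-supported peak identity; activity is % conversion of the extract's Middle Peak (QS-18 family) toward the QS-21 peak.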

[6] = Experiment 4-2: screening of glucosidases for deglycosylation with purified QS-18 (1 mg/ml) at pH 6 and 30 deg C; settings: pH 6, 30 degC, 18 hrs, clarified lysate, LCMS/MS
Method in brief: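 Enzyme activity derived from LC-MS/MS analysis after MeCN quench. Substrate QS-18 (1 mg/ml final) was exposed overnight (18 h, 30 °C, pH 6 phosphate buffer) to clarified lysates containing candidate glucosidases.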

[7] = Experiment 5-1: screening of additional glucosidases for deglycosylation with purified QS-18 (0.04 mg/ml) at pH 7.5 and 30 deg C; settings: pH 7.5, 30 degrees C, 18 hours, LCMS/MS
Experimental: The 94 additional genes, together with positive control (DNA encoding SEQ ID No. 262) and negative control, were transformed, expressed, lysed and reacted in the same manner as described above for Experiment 4-1, except the reaction was incubated at 30 degrees C. for 18 hours.
Samples were analysed by LCMS/MS according to the procedure in Experiment 4-1.

B1: 262 (protein, listed as Modestobacter marinus)
chain: MNPASSTRTDTMTDTTARTDSRLTDALAALSLEQKVQLLTGRDFWNTWPIEEIGLRRILVSDGPSGVRGEVWDERDPSLNLPSATALASAWDPDIARRYGAAAAVEARRKGVDVVLGPTINLHRSPLGGRHFEAFSEDPVLTAELAAAYVTGVQDNGVGATPKHYVANDFETDRFTVDVRADERTLRELYLLAFEKAVTEARAWLVMSAYNGINGATATENDLLETPLNSEWGFDGVVVSDWTAVRSLESARSSQDLVMPGPVGPWGDALVEAVRTGAIDESVVDRKVLRILTLAQRVGALEGSPAIDPVWVEDGVALAREAAVEGTVLLENRDELPWDATSLRKVAVIGNNAAAARTQGGGSATVLPEYTVSPLDGVRAALPDAEVSYSLGAVVQDGLVELPLAELTNPVTGGPGLRARFLTADGAELFGEDRRKSVLVYFGGDAPIAAAATYELTARWTPTESQTVRLGFALIGAAQLYVDGELLVESDLQPSGTDLGAAFMNPLTASAEVELVAGKPVDVRLVHDLSAKEGFAAHALFLQLGTEPAEVDEDALIAEAAEAAEAADVVLVVVGTNSIVESEGYDRESLSLPGRQDDLVRAVVAANPRTVVLVNAGAPVLLPWRDDVAALLLGWFGGQEFGNAVADVLLGVAEPGGRLPTTWPAAEADVPVLSCTPVDGVVEYTEGIHIGYRAWLRSGATPAYWFGSGQGYTCVELTGVEAPSRARPGEIVTVSVEVANRGERDGKQVVQVYAEKPDSTVDRPVRWLVGSAPVRVPAGQTAQVEVAVPTRYLAHWAGGWQYEPGVYRLRVGTTAVELPLETTLEVSA
Experiment 5-2 % conv [1]: 5.5%
Expt 4-1 % conv [2]: 99.5%
Expt 4-3 % conv [3]: 99.7%
Experiment 5-3 % conv [4]: 8.5%
Expt 4-4 % conv [5]: 68.6%
Expt 4-2 % conv [6]: 97.9%
Experiment 5-1 % conv [7]: 98.7%

Reference: patent US20240026407A1, “MODIFICATION OF SAPONINS” (GLAXOSMITHKLINE BIOLOGICALS SA, priority 2020, published 2024)
